Laboratory results from paper PMC3554864.

Target: NS3 helicase (NS3, with protease domain) (Hepatitis C virus (genotype ), UniProt Q9WMX2 1027-1657)
Assay: KMnO4 footprinting

Sequence of NS3 helicase (NS3, with protease domain) (Q9WMX2 1027-1657): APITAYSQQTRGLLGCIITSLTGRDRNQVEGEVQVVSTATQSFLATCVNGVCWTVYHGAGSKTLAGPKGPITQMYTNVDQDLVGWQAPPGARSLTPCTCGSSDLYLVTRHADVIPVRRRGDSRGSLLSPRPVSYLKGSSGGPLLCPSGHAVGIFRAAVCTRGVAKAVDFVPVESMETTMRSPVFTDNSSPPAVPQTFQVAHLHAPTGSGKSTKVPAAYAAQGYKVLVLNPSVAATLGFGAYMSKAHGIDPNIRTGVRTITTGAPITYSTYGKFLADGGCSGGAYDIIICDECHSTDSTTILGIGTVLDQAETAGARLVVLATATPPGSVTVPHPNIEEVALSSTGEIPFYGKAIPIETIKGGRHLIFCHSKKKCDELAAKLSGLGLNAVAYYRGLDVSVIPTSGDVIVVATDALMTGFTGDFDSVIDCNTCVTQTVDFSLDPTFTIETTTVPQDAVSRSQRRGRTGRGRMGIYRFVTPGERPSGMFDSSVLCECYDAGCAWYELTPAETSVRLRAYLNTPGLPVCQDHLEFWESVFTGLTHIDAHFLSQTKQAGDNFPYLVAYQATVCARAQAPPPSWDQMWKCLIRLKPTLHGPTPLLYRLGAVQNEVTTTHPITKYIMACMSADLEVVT

B1: 30mer blunt duplex (dsDNA)
DNA 1: GCTCTCTGTCTGTCTGTGTCTCTGTCTCTG
DNA 2: CAGAGACAGAGACACAGACAGACAGAGAGC
modifications: biotin (position not stated for this duplex)
  binding result: binds
